Earlier results on one substance are cited in paper PMC10019135.

As usually defined, the Kd is the constant that tells how readily two partners part at equilibrium.

The data set addresses IL-2Rβ/γc heterodimer (Homo sapiens) (UniProt P14784).
UniProt P14784, sequence (P14784 27-240, chain 1 of 2): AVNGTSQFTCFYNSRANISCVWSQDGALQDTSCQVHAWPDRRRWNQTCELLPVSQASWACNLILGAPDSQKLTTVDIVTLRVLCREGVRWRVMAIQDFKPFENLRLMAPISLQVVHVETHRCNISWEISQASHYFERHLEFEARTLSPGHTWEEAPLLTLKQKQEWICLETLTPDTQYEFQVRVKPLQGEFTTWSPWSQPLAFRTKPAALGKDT
UniProt P14784, sequence (P31785 23-262, chain 2 of 2, further chain): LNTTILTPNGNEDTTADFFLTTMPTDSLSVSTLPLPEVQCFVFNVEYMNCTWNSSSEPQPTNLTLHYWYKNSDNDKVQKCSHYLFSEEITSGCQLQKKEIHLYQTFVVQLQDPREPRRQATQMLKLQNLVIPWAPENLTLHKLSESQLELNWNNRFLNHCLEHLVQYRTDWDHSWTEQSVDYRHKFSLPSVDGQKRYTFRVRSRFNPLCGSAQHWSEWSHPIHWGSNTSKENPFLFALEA

As to IL-2 (from UniProt P60568), the Kd is 1 nM.
